First the molecules themselves.
B1: 4A2 (scFv, V domains shown)
VH: AVTLDESGGGLQTPGRALSLACKGSGFTFSSYAMNWVRQAPGKGLEFVAQITSSGRYTYYGTAVKGRATISRDNGQSTVRLQLNNLRAEDSGTYYCAKDAAAGYYDGATAGDIDAWGHGTEVIVSS
VL: LTQPSSVSANPGETVKITCSGGYNRYGWYQQKSPGSAPVTVIYSNNQRPSNIPSRFSGSKSGSTATLTITGVQAEDEAVYYCGSYDSSDGYAGIFGAGTTLTVL
B2: RH6 (scFv, V domains shown)
VH: B1 VH with R16G, A17G, A21V
VL: VTQPSSVSANPGESVKITCSGGSYSYGWYQQKSPGSAPVTVIYSNNQRPSNIPSRFSGSTSGSTSTLTITGVQADDEAVYFCGTFDSSTNAAFGAGTTLTVL
B3: RB11 (scFv, V domains shown)
VH: B1 VH with R16G, A17G, A21V
VL: LTQPSSVSANPGGTVKITCSGGSGSYGWFQQKAPGSAPVTLIYANTNRPSDIPSRFSGSKSGSTATLTITGVQVEDEAVYYCGSTDSSYVSIFGAGTTLTVL
B4: 4A8 (scFv, V domains shown)
VH: B1 VH with R16G, A17G, A21V, G24A
VL: LTQPSSVSANLGGTVKITCSGGSGSNHYGWYQQKSPGSAPVTVIYSNNKRPSNIPSRFSGSKFGSTATLTITGVQADDEAVYYCGGYDSSAGYIGPFGAGTTLTVL

Positions count from the first letter of the chain named.

One assay has as its target CADM1 on small cell lung cancer cell lines H146 and H69 (human) (UniProt Q9BY67). In words: flow cytometry, 1 ug scFv on 5x10^5 H69 cells, PE anti-HA.
Molecule B1 gave a 결합력 % of 29.1%.

B2 gave a 결합력 % of 12%.

The molecule B3 gave a 결합력 % of 61.8%.

Consider B4, for which the 결합력 % came to 61.1%.

The target is the same in another assay. In words: flow cytometry, 1 ug scFv on 5x10^5 H146 cells, PE anti-HA. In general terms: In flow cytometry, cells or beads pass a laser one at a time.
Molecule B1 registered a 결합력 % of 10.2%.

Take B2: the 결합력 % worked out at 4.5%.

With B3, the 결합력 % worked out at 33.6%.

For the molecule B4, the 결합력 % amounted to 9.7%.

Another assay deals with T1, CADM1 peptide structure expressed on cells (CADM1 peptide, Myc tag, hinge, transmembrane domain, GFP) (human).
T1 sequence: DSRAGEEGSIRAVDH
The assay can be described thus: flow cytometry, 1 ug scFv on 5x10^5 cells with the CADM1 peptide structure, PE anti-HA.
B1 had a 결합력 % of 16.3%.

In turn, B2 yielded a 결합력 % of 15.3%.

In turn, B3 displayed a 결합력 % of 16%.

B4 gave a 결합력 % of 14.7%.

The values are drawn from patent publication KR20220167207A.
